Experiments:
[1] = target: HSV-1 gB ectodomain gB730 (residues 31-730) (HSV-1 (strain KOS)) (UniProt P06437); experiment: SDS-PAGE under mildly denaturing conditions + Western blot
[2] = target: HSV-1 gB ectodomain gB730 (residues 31-730) (HSV-1 (strain KOS)) (UniProt P06437); experiment: SDS-PAGE under mildly denaturing conditions

Substance “HSV-1 gB ectodomain gB730 (residues 31-730) (from UniProt P06437 31-730) (domain or fragment)” has a stoichiometry N [1] of 3 and a stoichiometry N [2] of 3.
